Bridge positions count the residues as written; N and C are the ends. Square brackets hold non-standard residues; d marks the D form. R8 = C=CCCCCCC[C@@](C)(N)C(=O)O; S5 = C=CCCC[C@](C)(N)C(=O)O
Experiments:
[1] = molecular target: T1, Beclin 1 coiled coil domain (human Beclin 1, residues 176-268) (human), Q14457; assay: ITC, peptide titrated into Beclin 1 coiled coil domain, 25 C, one-site model
[2] = molecular target: T1, Beclin 1 coiled coil domain (human …); assay: ITC, compared with Tat-SP4

T1 sequence (Q14457 176-268 limits assumed): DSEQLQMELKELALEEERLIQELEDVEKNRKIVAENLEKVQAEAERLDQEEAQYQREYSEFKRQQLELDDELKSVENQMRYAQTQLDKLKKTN

B1: i7-01s-31 (Ac-[Tat]-VLFN(R8)[…](S5)RKV-NH2) (peptide)
peptide: Ac-YGRKKRRQRRRVLFN[R8]LVDVIK[S5]RKV-NH2
modifications: staple 16-23
SMILES: CC[C@H](C)[C@@H]1NC(=O)[C@H](C(C)C)NC(=O)[C@H](CC(=O)O)NC(=O)[C@H](C(C)C)NC(=O)[C@H](CC(C)C)NC(=O)[C@](C)(NC(=O)[C@H](CC(N)=O)NC(=O)[C@H](Cc2ccccc2)NC(=O)[C@H](CC(C)C)NC(=O)[C@@H](NC(=O)[C@H](CCCNC(=N)N)NC(=O)[C@H](CCCNC(=N)N)NC(=O)[C@H](CCCNC(=N)N)NC(=O)[C@H](CCC(N)=O)NC(=O)[C@H](CCCNC(=N)N)NC(=O)[C@H](CCCNC(=N)N)NC(=O)[C@H](CCCCN)NC(=O)[C@H](CCCCN)NC(=O)[C@H](CCCNC(=N)N)NC(=O)CNC(=O)[C@H](Cc2ccc(O)cc2)NC(C)=O)C(C)C)CCCCCCC=CCCC[C@@](C)(C(=O)N[C@@H](CCCNC(=N)N)C(=O)N[C@@H](CCCCN)C(=O)N[C@H](C(N)=O)C(C)C)NC(=O)[C@H](CCCCN)NC1=O
- Kd [1]: 0.33 µM
- fold stronger binding affinity than Tat-SP4 [2]: 10 fold

B2: i7-01s-54 (Ac-[Tat]-ALIQ(R8)[…](S5)RKR-NH2) (peptide)
peptide: Ac-YGRKKRRQRRRALIQ[R8]QEDVEK[S5]RKR-NH2
modifications: staple 16-23
SMILES: CC[C@H](C)[C@H](NC(=O)[C@H](CC(C)C)NC(=O)[C@H](C)NC(=O)[C@H](CCCNC(=N)N)NC(=O)[C@H](CCCNC(=N)N)NC(=O)[C@H](CCCNC(=N)N)NC(=O)[C@H](CCC(N)=O)NC(=O)[C@H](CCCNC(=N)N)NC(=O)[C@H](CCCNC(=N)N)NC(=O)[C@H](CCCCN)NC(=O)[C@H](CCCCN)NC(=O)[C@H](CCCNC(=N)N)NC(=O)CNC(=O)[C@H](Cc1ccc(O)cc1)NC(C)=O)C(=O)N[C@@H](CCC(N)=O)C(=O)N[C@]1(C)CCCCCCC=CCCC[C@@](C)(C(=O)N[C@@H](CCCNC(=N)N)C(=O)N[C@@H](CCCCN)C(=O)N[C@@H](CCCNC(=N)N)C(N)=O)NC(=O)[C@H](CCCCN)NC(=O)[C@H](CCC(=O)O)NC(=O)[C@H](C(C)C)NC(=O)[C@H](CC(=O)O)NC(=O)[C@H](CCC(=O)O)NC(=O)[C@H](CCC(N)=O)NC1=O
- Kd [1]: 311 µM

From patent US20240190920A1, “BECLIN 1-TARGETED STAPLED PEPTIDE AND PHARMACEUTICAL COMPOSITION” (Shenzhen Research Institute of the Hong Kong Polytechnic …, priority 2021, published 2024)
